Consider six molecules from article PMC6696043, “Aptamers in Education: Undergraduates Make Aptamers and Acquire 21st Century Skills Along the Way”.

Series [1] concerns the target calf intestinal alkaline phosphatase (CIAP) (calf) (UniProt P19111). Put plainly: 32P-RNA binding assay. The note with it: RNA 5 nM, triplicate; Selection buffer 20 mM HEPES pH 7.5, 150 mM NaCl, 5 mM MgCl2, room temperature; binding assay conditions not separately stated (refers to cited protocol).
For series [2], the target named is T1, calf intestinal alkaline phosphatase (CIAP) (calf, UniProt P19111 20-506). Put plainly: 32P-RNA binding assay; RNA 5 nM, triplicate; Selection buffer 20 mM HEPES pH 7.5, 150 mM NaCl, 5 mM MgCl2, room temperature; binding assay conditions not separately stated (refers to cited protocol). The note with it: protein: commercial, tags: biotinylated (Pierce 29339, 69 kDa), chain copies: 2, label: 32P.

For series [3], the target named is T1, calf intestinal alkaline phosphatase …. Put plainly: 32P-RNA bead binding assay; not above no-protein beads; prefers naked beads; Selection buffer 20 mM HEPES pH 7.5, 150 mM NaCl, 5 mM MgCl2, room temperature; binding assay conditions not separately stated (refers to cited protocol). The conditions noted are these: protein: commercial; tags: biotinylated (Pierce 29339, 69 kDa); chain copies: 2; label: 32P.

Series [4] has the same target. In words: 32P-RNA binding assay; Selection buffer 20 mM HEPES pH 7.5, 150 mM NaCl, 5 mM MgCl2, room temperature; binding assay conditions not separately stated (refers to cited protocol). The conditions noted are these: protein: commercial; tags: biotinylated (Pierce 29339, 69 kDa); chain copies: 2; label: 32P; stem-loop, GGG/CCC closing stem.
The target of series [5] is T2, human tissue-nonspecific alkaline phosphatase (human, UniProt P05186 18-501).
T2 sequence: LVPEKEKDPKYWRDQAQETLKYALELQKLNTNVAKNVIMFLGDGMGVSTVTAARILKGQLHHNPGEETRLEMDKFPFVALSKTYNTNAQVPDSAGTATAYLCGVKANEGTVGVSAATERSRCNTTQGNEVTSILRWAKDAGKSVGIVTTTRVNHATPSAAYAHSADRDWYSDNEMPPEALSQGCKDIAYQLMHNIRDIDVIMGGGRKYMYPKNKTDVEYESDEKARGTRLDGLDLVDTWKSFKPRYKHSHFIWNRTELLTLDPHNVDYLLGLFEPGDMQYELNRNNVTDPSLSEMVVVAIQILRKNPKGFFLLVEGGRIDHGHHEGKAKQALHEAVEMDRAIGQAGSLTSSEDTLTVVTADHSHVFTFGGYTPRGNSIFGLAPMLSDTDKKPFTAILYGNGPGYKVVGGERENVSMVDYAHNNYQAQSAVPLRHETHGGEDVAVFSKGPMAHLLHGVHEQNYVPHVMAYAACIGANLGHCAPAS
In words: 32P-RNA binding assay; up to 250 nM protein, single point; Selection buffer 20 mM HEPES pH 7.5, 150 mM NaCl, 5 mM MgCl2, room temperature; binding assay conditions not separately stated (refers to cited protocol). The conditions noted are these: protein: recombinant; chain copies: 2; label: 32P; stem-loop, GGG/CCC closing stem.

The target of series [6] is human intestinal alkaline phosphatase (human, UniProt P09923 20-503). The description is as above. The note with it: protein: recombinant; chain copies: 2; label: 32P; stem-loop, GGG/CCC closing stem.
Series [7] concerns the target T1, calf intestinal alkaline phosphatase …. In words: 32P-RNA bead binding assay; not above no-protein beads; Selection buffer 20 mM HEPES pH 7.5, 150 mM NaCl, 5 mM MgCl2, room temperature; binding assay conditions not separately stated (refers to cited protocol). The note with it: protein: commercial; tags: biotinylated (Pierce 29339, 69 kDa); chain copies: 2; label: 32P.

T1 sequence (P19111 20-506): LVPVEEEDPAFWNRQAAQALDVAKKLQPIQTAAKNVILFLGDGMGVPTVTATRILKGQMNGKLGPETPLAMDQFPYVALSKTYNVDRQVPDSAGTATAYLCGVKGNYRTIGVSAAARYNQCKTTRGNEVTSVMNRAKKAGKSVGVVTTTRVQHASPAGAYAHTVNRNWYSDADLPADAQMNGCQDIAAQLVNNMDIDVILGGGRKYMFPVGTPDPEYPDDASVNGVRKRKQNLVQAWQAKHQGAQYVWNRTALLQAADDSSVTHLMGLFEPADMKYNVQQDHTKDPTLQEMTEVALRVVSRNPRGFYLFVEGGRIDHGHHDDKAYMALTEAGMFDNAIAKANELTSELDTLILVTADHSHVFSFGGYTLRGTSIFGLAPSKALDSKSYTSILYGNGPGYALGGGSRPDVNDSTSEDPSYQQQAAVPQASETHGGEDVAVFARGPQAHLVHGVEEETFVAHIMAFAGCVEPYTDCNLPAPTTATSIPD
calf intestinal alkaline phosphatase (CIAP) (calf), sequence (P19111 20-506): as above
human intestinal alkaline phosphatase, sequence (P09923 20-503): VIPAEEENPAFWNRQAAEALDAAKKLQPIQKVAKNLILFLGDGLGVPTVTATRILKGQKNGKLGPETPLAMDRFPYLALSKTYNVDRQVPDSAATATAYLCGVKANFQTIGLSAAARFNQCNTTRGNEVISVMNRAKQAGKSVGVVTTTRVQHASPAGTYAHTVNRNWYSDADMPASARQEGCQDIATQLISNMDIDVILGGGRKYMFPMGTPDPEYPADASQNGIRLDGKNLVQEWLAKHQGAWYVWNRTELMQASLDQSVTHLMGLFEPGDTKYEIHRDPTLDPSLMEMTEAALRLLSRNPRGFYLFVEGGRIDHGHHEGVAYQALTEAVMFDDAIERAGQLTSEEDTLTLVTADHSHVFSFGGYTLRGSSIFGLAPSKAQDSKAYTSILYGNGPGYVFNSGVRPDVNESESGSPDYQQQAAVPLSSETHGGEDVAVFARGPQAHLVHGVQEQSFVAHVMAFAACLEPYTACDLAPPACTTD

The molecule “GGGUUUACCUAGGUGUAGAUGCUUCWAUUGAUAUGUUAUAACUGAACUCAACAUAAGGAUAUGAUGUAUGAUCAAGUGACGUCUGAACUGCUUCGAA [aptamer clone 4-9]” registered a Kd in series [1] of 9.4 nM.

B1: aptamer clone 3-6 (structured_RNA)
RNA: GGGUUUACCUAGGUGUAGAUGCUCUGCCCUUCAGAUUUAUCGAUGACCGUUGAACUCAACAUAAGACCUUCCAAAGUGACGUCUGAACUGCUUCGAA
Molecule B1 displayed a Kd in series [2] (VDH motif in loop and stem) of 10.8 nM.

B2: aptamer clone 4-3 (structured_RNA)
RNA: GGGUUUACCUAGGUGUAGAUGCUGUAUAUAGCGAACUCAACAUAAGGUAUAAUUACAAUUUCUAUACUUCUUCAAGUGACGUCUGAACUGCUUCGAA
As for B2, in series [2] (VDH motif in loop), binding was characterised by a dissociation constant (Kd) of 5 nM.

B3: clone c2-1 (structured_RNA)
RNA: GGGUUUACCUAGGUGUAGAUGCUGAUAGAUUUCCCCUGACUUAGGAGCUCAUUAGAUUUUUAUUGUGUGGGGCAAGUGACGUCUGAACUGCUUCGAA
Turning to B3, in series [3], the binding result is “no binding”.

B4: minimized aptamer variant 3.1 (structured_RNA)
RNA: GGGUAGAUGCUGUAUAUAGCGAACUCAACAUAAGGUAUAAUUACAAUUUCUACCC
With B4, in series [4], the affinity, expressed as Kd, was 6.7 nM. Also, the binding result in series [5] and in series [6] was “no binding” each time.

B5: clone c2-4 (structured_RNA)
RNA: GGGUUUACCUAGGUGUAGAUGCUUCUUCACUCCUUAUGAACACGUAGCGCUCAAUCAUCUCUAAUUAAUUCUCAAGUGACGUCUGAACUGCUUCGAA
Take B5: the binding result in series [7] was “no binding”.

One may read the Kd as the concentration at which binding is half-saturated. Low readings indicate a tighter complex, high ones a looser complex.
